B1: Tryptophan synthase alpha chain, P0A877 (parent)
chain: MERYESLFAQLKERKEGAFVPFVTLGDPGIEQSLKIIDTLIEAGADALELGIPFSDPLADGPTIQNATLRAFAAGVTPAQCFEMLALIRQKHPTIPIGLLMYANLVFNKGIDEFYAQCEKVGVDSVLVADVPVEESAPFRQAALRHNVAPIFICPPNADDDLLRQIASYGRGYTYLLSRAGVTGAENRAALPLNHLVAKLKEYNAAPPLQGFGISAPDQVKAAIDAGAAGAISGSAIVKIIEQHINEPEKMLAALKVFVQPMKAATRS

Variants of: B1
Settings: Escherichia coli (strain K12), pH 9, Thermal, DSC, Sodium tetraborate 1 mM, reversible: yes, structure 1WQ5, whole UniProt chain shown

Variant | ddG of mutation (higher = less stable) (50 °C) [kcal/mol] | heat capacity change of unfolding (50 °C) [kcal/mol/K] | unfolding free energy (50 °C) [kcal/mol] | Tm [°C] | change of melting temperature, mutant - wild type (higher = more stable) [°C] | heat capacity change of unfolding [kcal/mol/K] | unfolding enthalpy (calorimetric) [kcal/mol]
C81A | 0.69 | 4.11 | 0.48 | 51.8 | -1.7 | 4.11 | 83.5
C154A | 1.03 | 4.11 | 0.14 | 50.6 | -2.9 | 4.11 | 73
C154V | 1.12 | 4.21 | 0.05 | 50.2 | -3.3 | 4.21 | 71.5
C81G | – | – | – | 48.7 | -4.8 | 6.82 | 104
C81S | – | – | – | 49.1 | -4.4 | 5.02 | 92.8
C81V | – | – | – | 49.1 | -4.4 | 4.31 | 57.4
C118A | – | – | – | 49.2 | -4.3 | 3.3 | 82.3
C118S | – | – | – | 45 | -8.5 | 2.3 | 75.6
C118V | – | – | – | 49.3 | -4.2 | 2.42 | 73
C154S | – | – | – | 45.3 | -8.2 | 3.52 | 46.4

Source: FireProtDB (doi:10.1093/protein/9.5.425)
